The record followed here is US20250076311A1 (Chugai, published 2025).

Assay [1] has as its target T1, cynomolgus monkey FcγRIIa3 extracellular domain, His-tagged (cynomolgus monkey).
T1 construct: also called cyno FcgRIIa3; cynoFcγRIIa3; not shown: His-tag added to the C-terminus
T1 chain: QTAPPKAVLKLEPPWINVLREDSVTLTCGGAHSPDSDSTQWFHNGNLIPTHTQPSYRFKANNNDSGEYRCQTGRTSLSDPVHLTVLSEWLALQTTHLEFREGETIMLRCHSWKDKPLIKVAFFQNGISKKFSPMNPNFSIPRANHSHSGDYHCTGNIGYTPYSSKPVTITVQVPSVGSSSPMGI
Nature of the assay: SPR (BIACORE), antibody captured on chip, soluble FcgR as analyte, 25 C. The method, then: (§1) The kinetic analysis of interactions between these antibodies and FcγR was carried out using BIACORE® T200 or BIACORE® 4000 (GE Healthcare). HBS-EP+ (GE Healthcare) was used as the running buffer, and the measurement temperature was set to 25° C. […] After the measurement, the antibody captured on the chip was washed off by allowing reaction with 10 mM glycine-HCl, pH1.5 and 25 mM NaOH so that the chip was regenerated and used repeatedly. The sensorgrams obtained as measurement results were analyzed by the 1:1 Langmuir binding model using the BIACORE® Evaluation Software to calculate the binding rate constant ka (L/mol/s) and dissociation rate constant kd (1/s), and the dissociation constant KD (mol/L) was calculated from these values. […] Regarding such interactions, KD values were calculated using the following 1:1 binding model described in BIACORE® T100 Software Handbook BR1006-48 Edition AE.
A general note: In SPR one partner is held on a chip, and binding of the other changes the refractive index at the surface.

Assay [2] addresses T2, human FcγRIIb extracellular domain, His-tagged (human, UniProt P31994 43-217).
T2 construct: also called human FcgRIIb; not shown: His-tag added to the C-terminus
T2 sequence: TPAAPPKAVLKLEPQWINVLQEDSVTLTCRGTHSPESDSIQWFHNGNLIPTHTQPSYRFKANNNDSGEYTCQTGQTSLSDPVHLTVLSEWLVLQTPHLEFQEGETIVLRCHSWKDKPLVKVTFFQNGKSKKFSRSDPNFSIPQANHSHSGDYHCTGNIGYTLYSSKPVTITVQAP
Described as above. The method, then:
as §1

Assay [3] deals with T3, cynomolgus monkey FcγRIIIaS extracellular domain with C-terminal His-tag (cynomolgus monkey, UniProt Q8SPW2 21-206 at identity 1.00)).
T3 construct: also called cyno FcgRIIIaS; cynoFcγRIIIaS
T3 chain: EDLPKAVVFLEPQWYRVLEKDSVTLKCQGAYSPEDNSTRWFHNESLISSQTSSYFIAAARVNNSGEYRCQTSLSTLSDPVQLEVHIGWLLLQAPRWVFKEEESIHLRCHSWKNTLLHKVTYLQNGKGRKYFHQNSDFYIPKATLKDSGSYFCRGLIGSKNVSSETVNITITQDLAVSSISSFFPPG
The assay is described as follows: SPR (Biacore), antibody captured, FcgR analyte.

In assay [4] the target is T4, cynomolgus monkey FcγRIIa1 extracellular domain with C-terminal His-tag (cynomolgus monkey).
T4 construct: also called cyno FcgRIIa1; cynoFcγRIIa1
T4 chain: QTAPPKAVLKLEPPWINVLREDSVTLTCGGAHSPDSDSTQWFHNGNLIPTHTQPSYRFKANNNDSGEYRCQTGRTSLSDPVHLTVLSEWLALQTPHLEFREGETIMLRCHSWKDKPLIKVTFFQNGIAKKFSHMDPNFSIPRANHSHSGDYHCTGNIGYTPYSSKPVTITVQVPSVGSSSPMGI
The assay is described as follows: SPR (Biacore), KD of SG1 / KD of variant.

Assay [5] deals with T5, cynomolgus monkey FcγRIIa3 extracellular domain with C-terminal His-tag (cynomolgus monkey).
T5 construct: also called cyno FcgRIIa3; cynoFcγRIIa3
T5 chain: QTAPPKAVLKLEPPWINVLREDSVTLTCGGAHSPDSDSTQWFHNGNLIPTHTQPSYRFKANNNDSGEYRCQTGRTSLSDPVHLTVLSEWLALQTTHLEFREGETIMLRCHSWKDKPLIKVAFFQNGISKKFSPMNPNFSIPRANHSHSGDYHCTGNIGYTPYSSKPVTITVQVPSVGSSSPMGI
The assay is described as follows: SPR (Biacore), antibody captured, FcgR analyte.

Assay [6] has as its target T6, cynomolgus monkey FcγRIIa2 extracellular domain with C-terminal His-tag (cynomolgus monkey).
T6 construct: also called cyno FcgRIIa2; cynoFcγRIIa2
T6 chain: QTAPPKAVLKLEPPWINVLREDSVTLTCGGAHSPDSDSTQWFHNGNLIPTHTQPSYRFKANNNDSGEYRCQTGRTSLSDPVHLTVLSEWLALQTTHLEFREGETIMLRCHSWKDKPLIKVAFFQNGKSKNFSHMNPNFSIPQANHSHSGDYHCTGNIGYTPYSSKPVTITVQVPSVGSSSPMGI
The assay is described as follows: SPR (Biacore), KD of SG1 / KD of variant.

Assay [7] deals with T7, human FcγRIIaH extracellular domain with C-terminal His-tag (human, UniProt P12318 34-217).
T7 construct: also called human FcgRIIaH; FcγRIIa (type H)
T7 sequence: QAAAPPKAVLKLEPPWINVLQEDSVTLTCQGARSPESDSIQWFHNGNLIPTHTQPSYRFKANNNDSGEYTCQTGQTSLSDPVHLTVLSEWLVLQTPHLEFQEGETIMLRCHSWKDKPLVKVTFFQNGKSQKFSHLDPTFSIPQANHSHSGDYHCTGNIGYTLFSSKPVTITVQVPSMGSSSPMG
Nature of the assay: SPR (Biacore), antibody captured, FcgR analyte.

The target of assay [8] is T8, cynomolgus monkey FcγRIIb extracellular domain with C-terminal His-tag (cynomolgus monkey).
T8 construct: also called cyno FcgRIIb; cynoFcγRIIb
T8 chain: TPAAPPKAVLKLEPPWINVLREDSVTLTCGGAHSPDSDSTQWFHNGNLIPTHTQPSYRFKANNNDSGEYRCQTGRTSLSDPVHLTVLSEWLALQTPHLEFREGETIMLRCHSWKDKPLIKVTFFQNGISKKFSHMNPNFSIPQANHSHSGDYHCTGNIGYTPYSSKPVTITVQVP
Nature of the assay: SPR (Biacore), KD of SG1 / KD of variant.

Assay [9] concerns the target T9, human FcγRIIaR extracellular domain with C-terminal His-tag (human, UniProt P12318 34-217).
T9 construct: also called human FcgRIIaR; FcγRIIa (type R)
T9 chain: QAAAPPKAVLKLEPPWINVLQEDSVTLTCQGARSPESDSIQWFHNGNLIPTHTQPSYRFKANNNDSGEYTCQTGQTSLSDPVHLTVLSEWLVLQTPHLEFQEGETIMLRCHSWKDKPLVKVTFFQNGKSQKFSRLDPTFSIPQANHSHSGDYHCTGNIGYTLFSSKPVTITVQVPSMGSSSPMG
Nature of the assay: SPR (Biacore), KD of SG1 / KD of variant.

B1: M103205H795-MY265/M103202L889-SK1 (antibody, human IgG1, kappa, name in EU numbering)
heavy: QVTLKESGPVLVKPTETLTLTCTVSGIDLSHDDISWVRQAPGKGLEWVGIISYAGSTYYASWAKGRLTISKDTSKNQVVLTMTNMDPVDTATYYCARGVPAYSHGGDLWGQGTLVTVSSASTKGPSVFPLAPSSKSTSGGTAALGCLVKDYFPEPVTVSWNSGALTSGVHTFPAVLQSSGLYSLSSVVTVPSSSLGTQTYICNVNHKPSNTKVDKKVEPKSCDKTHTCPPCPAPELLTGPSVFLFPPKPKDTLMISRTPEVTCVVVDVSDEDPEVKFNWYVDGVEVHNAKTKPREEQYNSTYRVVSVLTVLHQDWLNGKEYKCKVSNKALPKPIEKTISKAKGQPREPQVYTLPPSREEMTKNQVSLTCLVKGFYPSDIAVEWESNGQPENNYKTTPPVLDSDGSFFLYSKLTVDKSRWQQGNVFSCSVMHEALHNHYTQKSLSLSP
light: DIVMTQSPATLSLSPGERATLSCTSSQSVYHANWLSWFQQKPGQPPKLLIYWASTLAYGVPSRFSGSGSGTDFTLTISSLQPEDAATYYCAGGYGGGRYAFGQGTKVEIKRTVAAPSVFIFPPSDEQLKSGTASVVCLLNNFYPREAKVQWKVDNALQSGNSQESVTEQDSKDSTYSLSSTLTLSKADYEKHKVYACEVTHQGLSSPVTKSFNRGEC
notes: also called MS1032LO06-MY265
B1: the Kd in assay [1] was determined as 43 µM; in assay [2] it was 2.7 µM.

B2: M103205H795-MY450/M103202L889-SK1 (antibody, human IgG1, kappa)
heavy: QVTLKESGPVLVKPTETLTLTCTVSGIDLSHDDISWVRQAPGKGLEWVGIISYAGSTYYASWAKGRLTISKDTSKNQVVLTMTNMDPVDTATYYCARGVPAYSHGGDLWGQGTLVTVSSASTKGPSVFPLAPSSKSTSGGTAALGCLVKDYFPEPVTVSWNSGALTSGVHTFPAVLQSSGLYSLSSVVTVPSSSLGTQTYICNVNHKPSNTKVDKKVEPKSCDKTHTCPPCPAMELLTGPSVFLFPPKPKDTLMISRTPEVTCVVVDVSDEDPEVKFNWYVDGVEVHNAKTKPREEQYNSTYRVVSVLTVLHQDWLNGKEYKCKVSNKALPKPIEKTISKAKGQPREPQVYTLPPSREEMTKNQVSLTCLVKGFYPSDIAVEWESNGQPENNYKTTPPVLDSDGSFFLYSKLTVDKSRWQQGNVFSCSVMHEALHNHYTQKSLSLSP
light: DIVMTQSPATLSLSPGERATLSCTSSQSVYHANWLSWFQQKPGQPPKLLIYWASTLAYGVPSRFSGSGSGTDFTLTISSLQPEDAATYYCAGGYGGGRYAFGQGTKVEIKRTVAAPSVFIFPPSDEQLKSGTASVVCLLNNFYPREAKVQWKVDNALQSGNSQESVTEQDSKDSTYSLSSTLTLSKADYEKHKVYACEVTHQGLSSPVTKSFNRGEC
notes: Substitutions in EU numbering on SG1
In the case of B2, the affinity in [3], expressed as Kd, was 1.3 µM. The “KD fold (SG1 = 1)” value in assay [4] turned out to be 2.5 fold.

B3: M103205H795-MY447/M103202L889-SK1 (antibody, human IgG1, kappa)
heavy: QVTLKESGPVLVKPTETLTLTCTVSGIDLSHDDISWVRQAPGKGLEWVGIISYAGSTYYASWAKGRLTISKDTSKNQVVLTMTNMDPVDTATYYCARGVPAYSHGGDLWGQGTLVTVSSASTKGPSVFPLAPSSKSTSGGTAALGCLVKDYFPEPVTVSWNSGALTSGVHTFPAVLQSSGLYSLSSVVTVPSSSLGTQTYICNVNHKPSNTKVDKKVEPKSCDKTHTCPPCPAIELLTGPSVFLFPPKPKDTLMISRTPEVTCVVVDVSDEDPEVKFNWYVDGVEVHNAKTKPREEQYNSTYRVVSVLTVLHQDWLNGKEYKCKVSNKALPKPIEKTISKAKGQPREPQVYTLPPSREEMTKNQVSLTCLVKGFYPSDIAVEWESNGQPENNYKTTPPVLDSDGSFFLYSKLTVDKSRWQQGNVFSCSVMHEALHNHYTQKSLSLSP
light: DIVMTQSPATLSLSPGERATLSCTSSQSVYHANWLSWFQQKPGQPPKLLIYWASTLAYGVPSRFSGSGSGTDFTLTISSLQPEDAATYYCAGGYGGGRYAFGQGTKVEIKRTVAAPSVFIFPPSDEQLKSGTASVVCLLNNFYPREAKVQWKVDNALQSGNSQESVTEQDSKDSTYSLSSTLTLSKADYEKHKVYACEVTHQGLSSPVTKSFNRGEC
notes: as for B2
Turning to B3, the dissociation constant (Kd) in [5] was 1.5 µM. Moreover, the “KD fold (SG1 = 1)” value in assay [6] is 5.6 fold.

B4: M103205H795-MY446/M103202L889-SK1 (antibody, human IgG1, kappa)
heavy: QVTLKESGPVLVKPTETLTLTCTVSGIDLSHDDISWVRQAPGKGLEWVGIISYAGSTYYASWAKGRLTISKDTSKNQVVLTMTNMDPVDTATYYCARGVPAYSHGGDLWGQGTLVTVSSASTKGPSVFPLAPSSKSTSGGTAALGCLVKDYFPEPVTVSWNSGALTSGVHTFPAVLQSSGLYSLSSVVTVPSSSLGTQTYICNVNHKPSNTKVDKKVEPKSCDKTHTCPPCPAHELLTGPSVFLFPPKPKDTLMISRTPEVTCVVVDVSDEDPEVKFNWYVDGVEVHNAKTKPREEQYNSTYRVVSVLTVLHQDWLNGKEYKCKVSNKALPKPIEKTISKAKGQPREPQVYTLPPSREEMTKNQVSLTCLVKGFYPSDIAVEWESNGQPENNYKTTPPVLDSDGSFFLYSKLTVDKSRWQQGNVFSCSVMHEALHNHYTQKSLSLSP
light: DIVMTQSPATLSLSPGERATLSCTSSQSVYHANWLSWFQQKPGQPPKLLIYWASTLAYGVPSRFSGSGSGTDFTLTISSLQPEDAATYYCAGGYGGGRYAFGQGTKVEIKRTVAAPSVFIFPPSDEQLKSGTASVVCLLNNFYPREAKVQWKVDNALQSGNSQESVTEQDSKDSTYSLSSTLTLSKADYEKHKVYACEVTHQGLSSPVTKSFNRGEC
notes: as for B2
As to B4, the “KD fold (SG1 = 1)” value in [4] worked out at 1.5 fold.

B5: M103205H795-MY475/M103202L889-SK1 (antibody)
heavy: QVTLKESGPVLVKPTETLTLTCTVSGIDLSHDDISWVRQAPGKGLEWVGIISYAGSTYYASWAKGRLTISKDTSKNQVVLTMTNMDPVDTATYYCARGVPAYSHGGDLWGQGTLVTVSSASTKGPSVFPLAPSSKSTSGGTAALGCLVKDYFPEPVTVSWNSGALTSGVHTFPAVLQSSGLYSLSSVVTVPSSSLGTQTYICNVNHKPSNTKVDKKVEPKSCDKTHTCPPCPWPELLTGPSVFLFPPKPKDTLMISRTPEVTCVVVDVSDEDPEVKFNWYVDGVEVHNAKTKPREEQYNSTYRVVSVLTVLHQDWLNGKEYKCKVSNKALPKPIEKTISKAKGQPREPQVYTLPPSREEMTKNQVSLTCLVKGFYPSDIAVEWESNGQPENNYKTTPPVLDSDGSFFLYSKLTVDKSRWQQGNVFSCSVMHEALHNHYTQKSLSLSP
light: DIVMTQSPATLSLSPGERATLSCTSSQSVYHANWLSWFQQKPGQPPKLLIYWASTLAYGVPSRFSGSGSGTDFTLTISSLQPEDAATYYCAGGYGGGRYAFGQGTKVEIKRTVAAPSVFIFPPSDEQLKSGTASVVCLLNNFYPREAKVQWKVDNALQSGNSQESVTEQDSKDSTYSLSSTLTLSKADYEKHKVYACEVTHQGLSSPVTKSFNRGEC
notes: as for B2
On to B5, for which the dissociation constant (Kd) is 0.9 µM in assay [7] and 2.5 µM in assay [5]. Further, the “KD fold (SG1 = 1)” value was 6.7 fold in assay [8], 5.1 fold in [6] and 5.2 fold in [9].

As a reminder, the Kd is the free concentration of one partner at which half of the binding sites on the other are occupied at equilibrium, for simple one-to-one binding.
